# How the values were obtained:
# [1] = target: cleaved, mature CDTb (from limited trypsinization of proCDTb) (Clostridioides difficile); experiment: negative-stain electron microscopy
# [2] = target: cleaved, mature CDTb (from limited trypsinization of proCDTb) (Clostridioides difficile); experiment: SEC; CDTb oligomerization assay: 500 μg proCDTb at 1 mg/mL, untreated or with trypsin 1:20 (wt/wt) at 37°C for 20 min, with buffer or 2-fold molar excess of Fab; Superdex 200 Increase 10/300 GL in 20 mM Tris pH 8, 100 mM NaCl, 6 mM CaCl2
substance,measurement,setting,value
"cleaved, mature CDTb (from limited trypsinization of proCDTb) (natural protein)",stoichiometry N,[1],14
same,percent of cleaved CDTb oligomerized,[2],5%

# Reference: publication PMC10127577
